Data reported in paper PMC8145704 (Microorganisms, 2021).
Ends that are not written are not given here.

Columns and labels:
Conditions in all cases: both partners purified
F97L-HBc capsids [1] = target: T1, F97L-HBc capsids (Hepatitis B virus (genotype D; strain …, UniProt P03146 1-183, F97L); experiment: ITC
T1 construct: copies: 240

P5T-HBc capsids [2] = target: T2, P5T-HBc capsids (Hepatitis B virus (genotype D; strain …, UniProt P03146 1-183, P5T); experiment: ITC
T2 construct: copies: 240

L60V-HBc capsids [3] = target: T3, L60V-HBc capsids (Hepatitis B virus (genotype D; strain …, UniProt P03146 1-183, L60V); experiment: ITC
T3 construct: copies: 240

[4] = target: T4, WT-HBc capsids (hepatitis B core protein, genotype D; strain ayw; GenBank: V01460.1) (Hepatitis B virus (genotype D; strain …, UniProt P03146 1-183); experiment: ITC
T4 construct: also called HBc-WT; HBc-CLPs; copies: 240

F97L-HBc capsids [5] = target: T1, F97L-HBc capsids; experiment: cryo-EM structure
P5T-HBc capsids [6] = target: T2, P5T-HBc capsids; experiment: cryo-EM structure
L60V-HBc capsids [7] = target: T3, L60V-HBc capsids; experiment: cryo-EM structure
[8] = target: T4, WT-HBc capsids (hepatitis B core …); experiment: peptide or protein array

For GSLLGRMKGA (source: synthetic peptide) [Peptide P2 “GSLLGRMKGA”], which dH (F97L-HBc capsids [1]) is on record?
The dH was -9.9 kcal/mol.

What about the “stoichiometry N” value (F97L-HBc capsids [1]) of the same binder?
The value was 0.52 peptide/HBc.

What about the dH (P5T-HBc capsids [2]) of the same binder?
Its dH is -7.7 kcal/mol.

And the “stoichiometry N” value (P5T-HBc capsids [2])?
Its value is 0.45 peptide/HBc.

And the dH (L60V-HBc capsids [3])?
The dH was -6.6 kcal/mol.

What about the “stoichiometry N” value (L60V-HBc capsids [3]) of the same binder?
The value was 0.5 peptide/HBc.

And the dH [4]?
The dH was -14.4 kcal/mol.

What about the “stoichiometry N” value [4] of the same binder?
Its value is 0.48 peptide/HBc.

Does MHRSLLGRMKGA (source: synthetic peptide) [Peptide P1 “MHRSLLGRMKGA”] bind (F97L-HBc capsids [5])?
Result: binds

Does MHRSLLGRMKGA (source: synthetic peptide) [Peptide P1 “MHRSLLGRMKGA”] bind (P5T-HBc capsids [6])?
Result: binds

Does MHRSLLGRMKGA (source: synthetic peptide) [Peptide P1 “MHRSLLGRMKGA”] bind (L60V-HBc capsids [7])?
Result: binds

What about the Kd [4] of the same binder?
The Kd was 26 µM.

What about the dH [4] of the same binder?
Its dH is -9 kcal/mol.

And the “stoichiometry N” value [4]?
Its value is 0.45 peptide/HBc.

B1: Peptide “SLLGRM” (core binding motif) (peptide)
peptide: H-SLLGRM-NH2
notes: shortened stretch of P2; source: synthetic peptide (Fmoc solid-phase synthesis, HPLC purified)
How did the Kd [4] turn out when B1 was run?
The Kd was 130 µM.

What about the dH [4] of the same binder?
Its dH is -8.3 kcal/mol.

And the “stoichiometry N” value [4]?
The value was 0.25 peptide/HBc.

Does GSLLGRMKGA (not fully specified (C-terminus)) [Peptide P2 “GSLLGRMKGA” on µSPOT peptide microarray] bind [8]?
Result: binds
